Source: article PMC8115599, “Mechanism of MRX inhibition by Rif2 at telomeres” (Nature Communications, 2021)

Biological target: T1, GST-Rif2_(1-60) (S. cerevisiae, UniProt Q06208 1-60)
T1 construct: Rif2, S. cerevisiae, residues 1-60; also called GST-ScRif2_(1-60); Rif2 BAT; source: E. coli BL21 (DE3), purified (GSH Sepharose, Hitrap Heparine)
T1 sequence (looked up): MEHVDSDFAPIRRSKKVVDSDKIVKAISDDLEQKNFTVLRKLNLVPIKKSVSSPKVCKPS
Test: pull-down; GST-Rif2_(1-60), its F8A mutant or GST (10 µg) immobilised on Glutathione Sepharose 4B; Rad50∆CC (30 µg) added in 100 µL 50 mM Tris HCl pH 8, 150 mM NaCl, 1 mM DTT, 0.5 mM EDTA, 10% glycerol, 2 mM MgCl2, benzonase; 120 min at 4 °C; glutathione elution, SDS-PAGE, silver staining
Details: both partners purified

B1: Rad50∆CC, purified (His-SUMO tag removed) (domain or fragment, S. cerevisiae)
chain: MSAIYKLSIQGIRSFDSNDRETIEFGKPLTLIVGMNGSGKTTIIECLKYATTGDLPPNSKGGVFIHDPKITGEKDIRAQVKLAFTSANGLNMIVTRNIQLLMKKTTTTFKTLEGQLVAINNSGDRSTLSTRSLELDAQVPLYLGVPKAILEYVIFCHQEDSLWPLSEPSNLKKKFDEIFQAMKFTKALDKILCYDDIDVYSKALDSAIMKYHGLKMQDINRIIDELWKRTYSGTDIDTIKIRSDEVSSTVKGKSYNYRVVMYKQDVELDMRGRCSAGQKVLASIIIRLALSETFGANCGVIALDEPTTNLDEENIESLAKSLHNIINMRRHQKNFQLIVITHDEKFLGHMNAAAFTDHFFKVKRDDRQKSQIEWVDINRVTY
notes: Rad50, S. cerevisiae, N-terminal Head domain, residues 1-189; residues joining the two Head domains in the Rad50∆CC allele; Rad50, S. cerevisiae, C-terminal Head domain, residues 1125-1312; also called Rad50 ATPase Head; Rad50 Head domains; source: E. coli BL21 (DE3), purified (NiNTA, PD10; tag cleaved with His-SUMO-Protease); not shown: His6-SUMO, N-terminal, cleaved
  binding result: binds
